Numbering of substitutions follows the chain as printed. Names may count otherwise.
T1: human LAG-3 (human, UniProt P18627 23-450, limits assumed)
T1 construct: Selections used human LAG-3-Fc, human LAG-3-6His, a 30 aa LAG-3 peptide and/or cells with cynomolgus LAG-3; also called CD223
T1 sequence (looked up): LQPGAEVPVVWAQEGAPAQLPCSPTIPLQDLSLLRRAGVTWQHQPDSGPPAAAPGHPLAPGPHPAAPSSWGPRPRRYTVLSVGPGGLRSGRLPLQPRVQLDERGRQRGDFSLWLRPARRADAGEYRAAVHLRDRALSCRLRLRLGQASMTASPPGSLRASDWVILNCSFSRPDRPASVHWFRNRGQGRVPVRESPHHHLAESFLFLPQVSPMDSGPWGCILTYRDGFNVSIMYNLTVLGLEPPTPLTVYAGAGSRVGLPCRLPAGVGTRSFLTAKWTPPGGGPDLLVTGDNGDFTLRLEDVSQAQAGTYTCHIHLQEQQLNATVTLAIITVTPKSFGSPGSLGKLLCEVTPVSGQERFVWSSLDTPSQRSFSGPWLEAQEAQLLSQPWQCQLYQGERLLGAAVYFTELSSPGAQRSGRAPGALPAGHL

T2: recombinant human LAG-3 (human, UniProt P18627 23-450, limits assumed)
T2 sequence (looked up): T1 sequence (looked up)

T3: human LAG-3 expressed on cells (human, UniProt P18627 23-525)
T3 construct: whole, on cells; also called CD223
T3 sequence (looked up): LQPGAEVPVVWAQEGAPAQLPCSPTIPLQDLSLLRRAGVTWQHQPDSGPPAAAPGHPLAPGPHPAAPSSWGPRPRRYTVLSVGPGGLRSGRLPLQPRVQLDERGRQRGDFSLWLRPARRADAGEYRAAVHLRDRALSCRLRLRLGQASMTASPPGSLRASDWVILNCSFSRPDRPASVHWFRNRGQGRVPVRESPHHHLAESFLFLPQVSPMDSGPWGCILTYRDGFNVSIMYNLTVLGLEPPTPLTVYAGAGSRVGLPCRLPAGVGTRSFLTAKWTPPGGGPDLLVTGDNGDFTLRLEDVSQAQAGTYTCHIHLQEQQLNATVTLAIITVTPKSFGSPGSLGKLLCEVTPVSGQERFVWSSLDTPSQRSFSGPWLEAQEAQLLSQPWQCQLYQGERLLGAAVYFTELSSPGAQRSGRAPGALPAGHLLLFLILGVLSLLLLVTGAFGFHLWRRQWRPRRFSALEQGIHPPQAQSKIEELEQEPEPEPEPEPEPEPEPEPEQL

B1: P13B03 Fab (Fab, V domains shown)
VH: EVQLQQSGAELVKPGASVKLSCTASGFNIKDTYIHWVKQRPEQGLEWIGEIDPANGNTKYDPKFQGKATITADTSSNTAYLQLSSLTSEDTAVYYCATYYYRYDVGGFDYWGQGTTLTVS
VL: ENVLTQSPALMAASPGEKVTITCSVSSSISSSNLHWFQQKSGTSPKLWIYGTSNLASGVPVRFSGSGSGTSYSLTISSMEAEDAATYYCQQWSSYPFTFGSGTKLEIK
notes: Murine Fab, periplasmic extract
B2: P14G03 Fab (Fab, V domains shown)
VH: B1 VH with E1Q, L4M, Q5K, E42G
VL: B1 VL with E1D, N2I, H35Y
notes: as for B1
B3: P13B02 Fab (Fab, V domains shown)
VH: B1 VH with E1Q, L4M, Q5K, G56D
VL: B1 VL with N2I, V3L
notes: as for B1
B4: P13A06 Fab (Fab, V domains shown)
VH: B1 VH with E1Q, Q5K, I34M, H35Y, E50R, A79V, Y94F, A97V, T98I, Y100S
VL: B1 VL with F37Y, F97H, S101G
notes: as for B1
B5: P15B06 Fab (Fab, V domains shown)
VH: B1 VH with I34M, H35Y, E46D, E50R, K59H, Y60F, A97S, Y100F
VL: B1 VL with E1Q, N2I, V3L, F37Y, F97L, S101A, I107L
notes: as for B1
B6: P14F06 Fab (Fab, V domains shown)
VH: B1 VH with E1Q, L4M, Q5K, T32N, E50S, T69S, T98S, Y100F
VL: B1 VL with N2I
notes: as for B1
B7: P16H05 Fab (Fab, V domains shown)
VH: B1 VH with E1Q, S7P, T32N, E50S, T69S, T98S, Y100F
VL: B1 VL with N2I, F37Y, F97H, S101G
notes: as for B1
B8: P13B02-06 (antibody, IgG1, V domains shown)
VH: QVQLVQSGAEVKKPGASVKVSCKASGFNIKDTYIHWVRQAPGQGLEWMGEIDPANDNTKYDPKFQGRVTITADTSTSTVYMELSSLRSEDTAVYYCATYYYRYDVGGFDYWGQGTLVTVSS
VL: EIVLTQSPGTLSLSPGERATLSCSVSSSISSSNLHWYQQKPGQAPRLLIYGTSNLASGIPDRFSGSGSGTDFTLTISRLEPEDFAVYYCQQWSSYPFTFGQGTKVEIK
notes: Humanized; generated as full length IgG1; also called P13B02-06 (IgG1)
B9: full length chimeric anti-LAG-3 antibody P13B02 (antibody, V domains shown)
VH: B1 VH with E1Q, L4M, Q5K, G56D
VL: B1 VL with N2I, V3L
notes: Murine variable regions on human heavy (Ch1, Ch2, Ch3) and light (CL) constant regions; full-length IgG1 chimeric antibody; also called chimeric antibody P13B02 (IgG1)
B10: P13B02-30 (IgG1 G1m17 N297A) (antibody, V domains shown)
VH: B8 VH with L4M, R102K
VL: B8 VL
notes: Full length antibody containing IgG1 G1m17 allotype with a N297A mutation (EU)
B11: P13B02-30 (IgG4) (antibody, V domains shown)
VH: B8 VH with L4M, R102K
VL: B8 VL

target: T1, human LAG-3; experiment: Fab phage display selection; periplasmic extracts screened by ELISA or flow cytometry
Excerpt: Anti-LAG-3 antibodies were identified by generation and selection of an immunized Fab phage display library. […] Per mouse, a Fab library was then generated by random-primed cDNA using total RNA as a template to amplify variable regions from mouse antibody genes. Heavy and kappa chain amplicons were combined and cloned into phagemid vectors. […] The 30 amino acid human LAG-3 peptide is a biotinylated peptide comprising the amino acid sequence of […] (SEQ ID NO: 199). Periplasmic extracts of selected Fab clones were then screened by ELISA or flow cytometry. Antibody sequencing and off-rate analysis were then performed on anti-LAG-3 Fabs.

Row | Binder | binding result
1 | B1 | binds
2 | B2 | binds
3 | B3 | binds
4 | B4 | binds
5 | B5 | binds
6 | B6 | binds
7 | B7 | binds

target: T2, recombinant human LAG-3; experiment: surface plasmon resonance (data not shown)

Row | Binder | binding result
8 | B8 | binds

target: T3, human LAG-3 expressed on cells; experiment: flow cytometry, 10 ug/ml antibody on SEA-activated primary human CD4+ T cells (FIG. 6A)

Row | Binder | binding result
9 | B9 | binds
10 | B8 | binds
11 | B10 | binds
12 | B11 | binds

target: T3, human LAG-3 expressed on cells; experiment: flow cytometry, Fab periplasmic extract on Jurkat cells expressing human LAG-3 (FIGS. 1A-1C)
Procedure: The anti-LAG-3 Fabs from periplasmic extracts were tested for binding to LAG-3-expressing cells using flow cytometry. Briefly, wild type and human LAG-3-expressing Jurkat cells were plated at 2×10⁵ cells/well in sample buffer (PBS (Gibco, Cat #10010-015)+0.5% FBS (Gibco, Cat #10270-106)) in 96-well U-bottom plates (Sarstedt). 22 μl of anti-LAG-3 Fab periplasmic extract and 83 μl of diluted anti-c-myc antibody (Gentaur, Clone #9E10, Cat #04-cmyc-9E10) were incubated for 30 minutes at room temperature. 100 μl of the periplasmic extract/anti-c-myc mixture was added to cells and then incubated for one hour on ice. Cells were washed three times and then incubated with a goat anti-mouse APC (BD Biosciences, Cat #550826) for 30 minutes on ice. Cells were washed three times and then analyzed with a FACS machine (BD Accuri6).

Row | Binder | binding result
13 | B1 | binds
14 | B2 | binds
15 | B3 | binds
16 | B4 | binds
17 | B5 | binds
18 | B6 | binds
19 | B7 | binds
